Data from patent US20220098307A1 (WUHAN YZY BIOPHARMA, published 2022).
Residue numbers refer to the chain shown, from its start. Names and notes keep the numbering of the source.

B1: CEA-M3-FES (bispecific antibody, human IgG1, kappa)
fusion heavy: QVQLVQSGSELKKPGASVKVSCKASGYTFTVFGMNWVRQAPGQGLEWMGWINTKTGEATYVEEFKGRFVFSLDTSVSTAYLQISSLKADDTAVYYCARWDFYDYVEAMDYWGQGTTVTVSSASTKGPSVFPLAPSSKSTSGGTAALGCLVKDYFPEPVTVSWNSGALTSGVHTFPAVLQSSGLYSLSSVVTVPSSSLGTQTYICNVNHKPSNTKVDKKVEPKSCGGGGSGGGGSQVQLVESGGGVVQPGRSLRLSCAASGFTFSTYAMNWVRQAPGKGLEWVARIRSKYNNYATYYADSVKDRFTISRDDSKNTLYLQMNSLRAEDTAVYYCARHGNFGNSYVSWFAYWGQGTLVTVSSASVAAPSVFIFPPSDEQLKSGTASVVCLLNNFYPREAKVQWKVDNALQSGNSQESVTEQDSKDSTYSLSSTLTLSKADYEKHKVYACEVTHQGLSSPVTKSFNRGECDKTHTCPPCPAPEFEGGPSVFLFPPKPKDTLMISRTPEVTCVVVDVSHEDPEVKFNWYVDGVEVHNAKTKPREEQYNSTYRVVSVLTVLHQDWLNGKEYKCKVSNKALPASIEKTISKAKGQPREPQVYTLPPCRDELTKNQVSLWCLVKGFYPSDIAVEWESNGQPENNYKTTPPVLDSDGSFFLYSKLTVDKSRWQQGNVFSCSVMHEALHNHYTQKSLSLSPGK
cross light: QTVVTQEPSLTVSPGGTVTLTCRSSTGAVTTSNYANWVQQKPGQAPRGLIGGTNKRAPGVPARFSGSLLGGKAALTLSGVQPEDEAEYYCALWYSNLWVFGGGTKVEIKSSASTKGPSVFPLAPSSKSTSGGTAALGCLVKDYFPEPVTVSWNSGALTSGVHTFPAVLQSSGLYSLSSVVTVPSSSLGTQTYICNVNHKPSNTKVDKKVEPKSC
heavy: QVQLVQSGSELKKPGASVKVSCKASGYTFTVFGMNWVRQAPGQGLEWMGWINTKTGEATYVEEFKGRFVFSLDTSVSTAYLQISSLKADDTAVYYCARWDFYDYVEAMDYWGQGTTVTVSSASTKGPSVFPLAPSSKSTSGGTAALGCLVKDYFPEPVTVSWNSGALTSGVHTFPAVLQSSGLYSLSSVVTVPSSSLGTQTYICNVNHKPSNTKVDKKVEPKSCDKTHTCPPCPAPEFEGGPSVFLFPPKPKDTLMISRTPEVTCVVVDVSHEDPEVKFNWYVDGVEVHNAKTKPREEQYNSTYRVVSVLTVLHQDWLNGKEYKCKVSNKALPASIEKTISKAKGQPREPQVCTLPPSRDELTKNQVSLSCAVKGFYPSDIAVEWESNGQPENNYKTTPPVLDSDGSFFLVSKLTVDKSRWQQGNVFSCSVMHEALHNRFTQKSLSLSPGK
light: DIQMTQSPSSLSASVGDRVTITCKASQNVGTNVAWYQQKPGKAPKLLIYSASYRYSGVPSRFSGSGSGTDFTFTISSLQPEDIATYYCHQYYTYPLFTFGQGTKVEIKRTVAAPSVFIFPPSDEQLKSGTASVVCLLNNFYPREAKVQWKVDNALQSGNSQESVTEQDSKDSTYSLSSTLTLSKADYEKHKVYACEVTHQGLSSPVTKSFNRGEC
notes: structure 3; CEA x CD3; CH2 FES; copies: 1 + 1 + 1 + 2
B2: M3IC-WT (bispecific antibody)
fusion heavy: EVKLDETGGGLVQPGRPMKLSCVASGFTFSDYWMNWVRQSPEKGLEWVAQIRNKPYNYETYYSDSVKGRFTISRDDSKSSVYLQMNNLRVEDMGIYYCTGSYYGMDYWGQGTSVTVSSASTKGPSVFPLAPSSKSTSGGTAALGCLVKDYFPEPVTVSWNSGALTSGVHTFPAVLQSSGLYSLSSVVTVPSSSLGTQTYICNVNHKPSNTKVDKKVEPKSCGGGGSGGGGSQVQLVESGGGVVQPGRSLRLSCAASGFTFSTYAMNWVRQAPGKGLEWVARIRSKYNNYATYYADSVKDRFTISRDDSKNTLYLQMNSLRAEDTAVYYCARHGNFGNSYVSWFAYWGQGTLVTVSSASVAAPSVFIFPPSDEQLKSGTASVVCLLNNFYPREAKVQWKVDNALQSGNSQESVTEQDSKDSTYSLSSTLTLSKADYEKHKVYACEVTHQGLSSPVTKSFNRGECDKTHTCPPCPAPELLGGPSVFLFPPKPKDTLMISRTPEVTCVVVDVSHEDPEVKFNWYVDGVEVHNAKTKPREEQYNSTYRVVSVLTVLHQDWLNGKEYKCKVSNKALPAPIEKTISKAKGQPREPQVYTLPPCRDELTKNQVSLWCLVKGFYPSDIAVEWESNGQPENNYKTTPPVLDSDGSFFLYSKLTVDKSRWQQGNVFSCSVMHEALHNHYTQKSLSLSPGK
cross light: B1 cross light
heavy: EVKLDETGGGLVQPGRPMKLSCVASGFTFSDYWMNWVRQSPEKGLEWVAQIRNKPYNYETYYSDSVKGRFTISRDDSKSSVYLQMNNLRVEDMGIYYCTGSYYGMDYWGQGTSVTVSSASTKGPSVFPLAPSSKSTSGGTAALGCLVKDYFPEPVTVSWNSGALTSGVHTFPAVLQSSGLYSLSSVVTVPSSSLGTQTYICNVNHKPSNTKVDKKVEPKSCDKTHTCPPCPAPELLGGPSVFLFPPKPKDTLMISRTPEVTCVVVDVSHEDPEVKFNWYVDGVEVHNAKTKPREEQYNSTYRVVSVLTVLHQDWLNGKEYKCKVSNKALPAPIEKTISKAKGQPREPQVCTLPPSRDELTKNQVSLSCAVKGFYPSDIAVEWESNGQPENNYKTTPPVLDSDGSFFLVSKLTVDKSRWQQGNVFSCSVMHEALHNRFTQKSLSLSPGK
light: DVVMTQTPLSLPVSLGDQASISCRSSQSLVHSNGNTYLRWYLQKPGQSPKVLIYKVSNRFSGVPDRFSGSGSGTDFTLKISRVEAEDLGVYFCSQSTHVPWTFGGGTKLEIKRTVAAPSVFIFPPSDEQLKSGTASVVCLLNNFYPREAKVQWKVDNALQSGNSQESVTEQDSKDSTYSLSSTLTLSKADYEKHKVYACEVTHQGLSSPVTKSFNRGEC
notes: structure 3 isotype control; CH2 WT; copies: 1 + 1 + 1 + 2
B3: M3IC-NA (bispecific antibody)
fusion heavy: EVKLDETGGGLVQPGRPMKLSCVASGFTFSDYWMNWVRQSPEKGLEWVAQIRNKPYNYETYYSDSVKGRFTISRDDSKSSVYLQMNNLRVEDMGIYYCTGSYYGMDYWGQGTSVTVSSASTKGPSVFPLAPSSKSTSGGTAALGCLVKDYFPEPVTVSWNSGALTSGVHTFPAVLQSSGLYSLSSVVTVPSSSLGTQTYICNVNHKPSNTKVDKKVEPKSCGGGGSGGGGSQVQLVESGGGVVQPGRSLRLSCAASGFTFSTYAMNWVRQAPGKGLEWVARIRSKYNNYATYYADSVKDRFTISRDDSKNTLYLQMNSLRAEDTAVYYCARHGNFGNSYVSWFAYWGQGTLVTVSSASVAAPSVFIFPPSDEQLKSGTASVVCLLNNFYPREAKVQWKVDNALQSGNSQESVTEQDSKDSTYSLSSTLTLSKADYEKHKVYACEVTHQGLSSPVTKSFNRGECDKTHTCPPCPAPELLGGPSVFLFPPKPKDTLMISRTPEVTCVVVDVSHEDPEVKFNWYVDGVEVHNAKTKPREEQYASTYRVVSVLTVLHQDWLNGKEYKCKVSNKALPAPIEKTISKAKGQPREPQVYTLPPCRDELTKNQVSLWCLVKGFYPSDIAVEWESNGQPENNYKTTPPVLDSDGSFFLYSKLTVDKSRWQQGNVFSCSVMHEALHNHYTQKSLSLSPGK
cross light: B1 cross light
heavy: B2 heavy with N298A
light: B2 light
notes: structure 3 isotype control; CH2 N297A; copies: 1 + 1 + 1 + 2
B4: M3IC-AAG (bispecific antibody)
fusion heavy: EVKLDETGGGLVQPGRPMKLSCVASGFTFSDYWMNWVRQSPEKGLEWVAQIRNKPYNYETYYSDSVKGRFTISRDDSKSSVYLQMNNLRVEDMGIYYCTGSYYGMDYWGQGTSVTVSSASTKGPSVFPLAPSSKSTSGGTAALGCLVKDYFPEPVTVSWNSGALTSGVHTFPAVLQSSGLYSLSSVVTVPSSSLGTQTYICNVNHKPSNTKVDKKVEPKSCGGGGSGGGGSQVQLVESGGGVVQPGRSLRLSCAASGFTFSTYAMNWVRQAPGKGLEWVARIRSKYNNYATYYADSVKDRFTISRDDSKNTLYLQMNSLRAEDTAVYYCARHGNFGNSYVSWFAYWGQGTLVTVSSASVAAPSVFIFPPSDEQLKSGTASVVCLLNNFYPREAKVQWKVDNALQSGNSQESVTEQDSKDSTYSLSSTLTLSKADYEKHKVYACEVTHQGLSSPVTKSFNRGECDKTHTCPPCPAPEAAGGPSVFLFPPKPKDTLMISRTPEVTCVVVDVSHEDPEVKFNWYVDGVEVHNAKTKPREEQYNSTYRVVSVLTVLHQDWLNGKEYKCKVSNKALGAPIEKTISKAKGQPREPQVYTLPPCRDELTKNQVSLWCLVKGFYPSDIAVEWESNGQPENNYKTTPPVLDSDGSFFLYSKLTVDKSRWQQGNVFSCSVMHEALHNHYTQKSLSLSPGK
cross light: B1 cross light
heavy: B2 heavy with L235A, L236A, P330G
light: B2 light
notes: structure 3 isotype control; CH2 AAG; copies: 1 + 1 + 1 + 2
B5: M3IC-FES (bispecific antibody)
fusion heavy: B3 fusion heavy with L477F, L478E, A540N, P574S
cross light: B1 cross light
heavy: B2 heavy with L235F, L236E, P332S
light: B2 light
notes: structure 3 isotype control; CH2 FES; copies: 1 + 1 + 1 + 2
B6: CEA-M3-NA (bispecific antibody, human IgG1, kappa, N297A)
fusion heavy: B1 fusion heavy with F480L, E481L, N543A, S577P
cross light: B1 cross light
heavy: B1 heavy with F238L, E239L, N301A, S335P
light: B1 light
notes: structure 3; CEA x CD3; CH2 N297A; copies: 1 + 1 + 1 + 2
B7: CD38-M1-FES-3 (bispecific antibody)
chain: not shown
heavy: not shown
light: DIELTQPPSVSVAPGQTARISCSGDNLRHYYVYWYQQKPGQAPVLVIYGDSKRPSGIPERFSGSNSGNTATLTISGTQAEDEADYYCQTYTGGASLVFGGGTKLTVLGQGQPKAAPSVTLFPPSSEELQANKATLVCLISDFYPGAVTVAWKADSSPVKAGVETTTPSKQSNNKYAASSYLSLTPEQWKSHRSYSCQVTHEGSTVEKTVAPTECS
notes: structure 1; CD38 (MOR) x CD3 (I2C); CH2 FES; CL is Lc3

The binders below were run against T1, Human CD3ε (human, UniProt P07766 23-126) (assay: flow cytometry, human T cells).
T1 construct: CD3 on T cells isolated from human whole blood
Procedure, shortened: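 Cells expressing the target antigen (CD38+ MM.1S or RPMI 8226 for CD38; isolated T cells for CD3) were plated at 2×10⁵ per well in 1% FBS-PBS on ice. Antibody was titrated 3-fold over 11 points from 3000 nM and incubated 2 h at 4° C with shaking, followed by PE anti-human IgG Fc.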
B1 showed an EC50 of 639 nM.
B2 gave an EC50 of 637 nM.
B3 showed an EC50 of 739 nM.
Work on B4 yielded an EC50 of 606 nM.
Binder B5 has an EC50 of 662 nM.
Binder B6 has an EC50 of 688 nM.

Each binder was assayed against T2, human CEA (human, UniProt P06731 35-685) (assay: flow cytometry, human tumor cells (table of the CEA series)).
T2 sequence: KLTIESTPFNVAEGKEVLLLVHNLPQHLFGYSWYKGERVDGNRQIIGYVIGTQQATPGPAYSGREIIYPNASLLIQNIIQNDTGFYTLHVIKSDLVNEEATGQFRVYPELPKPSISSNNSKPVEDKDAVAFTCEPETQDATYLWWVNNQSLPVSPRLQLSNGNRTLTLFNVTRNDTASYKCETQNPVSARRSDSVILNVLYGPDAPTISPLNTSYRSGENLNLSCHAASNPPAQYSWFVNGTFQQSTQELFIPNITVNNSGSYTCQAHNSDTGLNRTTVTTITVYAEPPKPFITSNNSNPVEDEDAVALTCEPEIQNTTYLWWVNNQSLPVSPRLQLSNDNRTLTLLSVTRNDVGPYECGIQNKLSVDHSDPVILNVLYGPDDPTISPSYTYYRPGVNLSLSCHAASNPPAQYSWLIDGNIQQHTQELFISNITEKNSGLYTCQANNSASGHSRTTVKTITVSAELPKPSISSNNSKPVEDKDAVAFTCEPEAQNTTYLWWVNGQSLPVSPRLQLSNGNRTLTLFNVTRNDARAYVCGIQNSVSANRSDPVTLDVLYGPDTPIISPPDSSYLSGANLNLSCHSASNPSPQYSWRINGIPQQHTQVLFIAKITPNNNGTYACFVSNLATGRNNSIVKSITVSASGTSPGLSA
Text: (§1) 1) Cell preparation: T cells isolated from CD3-positive human whole blood were used for a CD3 end affinity detection of multifunctional antibody molecule; positive tumor cells of corresponding antigen were used for detecting affinity of tumor antigen; for example, CD38-positive MM. 1S cells (purchased from the Cell Resource Center of Shanghai Institutes for Biological Sciences, Chinese Academy of Sciences) or RPMI 8226 cells (purchased from the Cell Resource Center of Shanghai Institutes for Biological Sciences, Chinese Academy of Sciences) were used for CD38 antigen detection, and PD-L1 positive H358 cells (purchased from the Cell Resource Center of Shanghai Institutes for Biological Sciences, Chinese Academy of Sciences) were used for PD-L1 antigen detection, and so on. The cells were resuspended with 1% FBS-PBS, adjusted to a density of 4×10⁶/ml, and 50 μl of cells were taken from each well, and then plated at 2×10⁵ per well. Cell plating was operated on ice
(§2) 2) Addition of the antibody: according to the experimental design, the antibody was diluted gradually, and dilution of antibody was operated on ice. For example, the initial concentration of antibody for dilution was 3000 nM, and the antibody was diluted by 3 times with 11 concentration gradients. The diluted antibody was added to a cell well at 50 μl per well, mixed well, and shaked and incubated at 4° C. 1100 rpm/min for 2 h; after washing, the cells were resuspend in 1% FBS-PBS, and a diluted secondary antibody PE anti-human IgG FC (Biolegend, 409304) was added with a final concentration of 8 ug/ml and a volume of 50 μl/well. At the same time, a well only added with cells and secondary antibody was set as a control, the components were mixed well, and incubated under shaking at 1100 rpm/min at 4° C. for 1 h;
(§3) 5) Data analysis: the data was analyzed by a flow analysis software FlowJo 7.6 thereby obtaining an average fluorescence intensity of the specific antibody concentration, plotted by a Graphpad Prism 5 with the antibody concentration (nM) as an abscissa and the average fluorescence intensity as an ordinate; the EC50 value was calculated by the method of One site—Specific binding, and the EC50 value indicated the cell affinity of the antibody to the corresponding target antigen.
B2: no binding.
B3: no binding.
B4: no binding.
B5: no binding.

What follows are binders tested against T2, human CEA (assay: flow cytometry, human tumor cells (CEA+)).
Procedure, shortened: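 Antigen-positive tumor cells or isolated T cells, 2×10⁵/well, 1% FBS-PBS, on ice. Ab 3000 nM top, 3-fold ×11, 2 h 4° C shaking; wash; PE anti-hIgG Fc 8 ug/ml, 1 h 4° C. FACS MFI; EC50, one site–specific binding.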
Work on B1 yielded an EC50 of 42.9 nM.
Work on B6 yielded an EC50 of 32.1 nM.

Each binder was assayed against T3, Monkey CD3 (monkey) (assay: flow cytometry, monkey T cells).
T3 construct: whole, on cells; also called CD3 of monkey CD3 positive T cells
B7 showed an EC50 of 34 nM.

What follows are binders tested against Human CD38 (human, UniProt P28907 43-300) (assay: flow cytometry, MM.1S or RPMI 8226 cells).
Text: as §1, §2, §3
Work on B7 yielded an EC50 of 11.1 nM.

Target: T3, Monkey CD3
Assay: flow cytometry, monkey T cells
Remark: another data set of the same source
With B1 the EC50 was 732 nM.
B2 was tested, and the EC50 was 709 nM.
In the case of B3, the EC50 is reported as 935 nM.
B4 was tested, and the EC50 was 659 nM.
Work on B5 yielded an EC50 of 671 nM.
B6 showed an EC50 of 798 nM.
